Laboratory results from article doi:10.1101/447052.
Like-named read-outs stand apart in the source and are kept apart here.

What was measured:
[1] = biological target: tail fiber gp17 of phage P68 (in the virion) (S. aureus phage P68); assay: cryo-EM structure
[2] = biological target: head fiber gp14 of phage P68 (S. aureus phage P68); assay: cryo-EM structure
[3] = biological target: portal protein gp19 of phage P68 (S. aureus phage P68); assay: cryo-EM structure
[4] = biological target: lower collar protein gp18 of phage P68 (S. aureus phage P68); assay: cryo-EM structure
[5] = biological target: tail fiber protein gp17 of phage P68 (protein used for crystallization) (S. aureus phage P68); assay: crystal structure

With “tail fiber gp17 of phage P68 (in the virion) (natural protein)” as the substance, how does the stoichiometry N [1] read?
The stoichiometry N was 3 subunits.

How did the stoichiometry N [2] turn out when “head fiber gp14 of phage P68 (natural protein)” was run?
The stoichiometry N was 3 subunits.

Which stoichiometry N ([3]; scale: inner core proteins for each portal protein) does the source give for “inner core protein gp22 of phage P68 (natural protein)” here?
Its stoichiometry N is 6.

For “lower collar protein gp18 of phage P68 (natural protein)”, which stoichiometry N [4] is on record?
Its stoichiometry N is 12 subunits.

“portal protein gp19 of phage P68 (natural protein)” was tested. Which stoichiometry N [3] did it give?
The stoichiometry N was 12 subunits.

Which stoichiometry N [5] does the source give for “tail fiber protein gp17 of phage P68 (protein used for crystallization) (natural protein)” here?
Its stoichiometry N is 3 subunits.
